Experimental data taken from patent CN113521276A.

Target: 人IFNAR1 on cells (HEK Blue IFNα/β cells, Daudi cells, human whole blood) (human) (UniProt P17181)
Assay: cell-based or functional assay

Chain of 人IFNAR1 on cells (HEK Blue IFNα/β cells, Daudi cells, human whole blood) (human) (P17181 28-557): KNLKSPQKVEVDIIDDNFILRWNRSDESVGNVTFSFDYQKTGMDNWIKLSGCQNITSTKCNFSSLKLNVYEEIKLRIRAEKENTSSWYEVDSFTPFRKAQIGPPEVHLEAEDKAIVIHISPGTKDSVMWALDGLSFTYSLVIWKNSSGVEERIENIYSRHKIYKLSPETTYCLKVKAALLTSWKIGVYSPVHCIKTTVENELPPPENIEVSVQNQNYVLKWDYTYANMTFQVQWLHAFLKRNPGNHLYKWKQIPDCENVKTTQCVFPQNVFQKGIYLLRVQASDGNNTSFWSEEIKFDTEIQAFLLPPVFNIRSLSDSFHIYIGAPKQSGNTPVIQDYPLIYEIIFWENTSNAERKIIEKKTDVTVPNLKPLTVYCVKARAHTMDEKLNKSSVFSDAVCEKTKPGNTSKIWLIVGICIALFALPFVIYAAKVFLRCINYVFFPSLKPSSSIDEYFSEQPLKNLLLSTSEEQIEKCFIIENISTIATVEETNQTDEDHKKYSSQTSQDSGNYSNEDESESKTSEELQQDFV

- 抑制干扰素诱导的Daudi细胞增殖活性 (0.8ng/ml IFNα.2b, CellTiter-Glo): 31.7 ng/mL
- 抑制干扰素诱导的HEK Blue IFNα/β细胞中STAT1/2磷酸化活性 (0.2ng/ml IFNα.2b, QUANTI-Blue OD630nm): 4.43 ng/mL
- 抑制干扰素诱导的全血释放CXCL10/IP10活性 (8ng/ml IFNα.2b, 40ng/ml TNF-α, sandwich ELISA): 562 ng/mL
Substance: Anifrolumab (antibody)
